Here are results for ten molecules from US20160024208A1 (Regeneron, published 2016).

The Kd is the equilibrium constant for the complex coming apart. A higher Kd goes with a looser complex.

Experiment [1] addresses T1, Native Nav1.7 (3-1) peptide, rat (rat).
T1 construct: Synthetic peptide; also called Rat Nav1.7 3-1 native
T1 peptide: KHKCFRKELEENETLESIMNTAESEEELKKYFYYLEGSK
Kind of experiment: ELISA on coated peptide, antibody 1 ug/ml, OD450 grade. The protocol:
(§1) Anti-Naᵥ 1.7 antibodies were tested for their ability to bind to the Naᵥ 1.7 peptides. The various peptides were coated overnight onto 96-well Nunc Immunosorp plates at a concentration of 4 μg/mL in PBS, followed by blocking for 1 hour in a suitable blocking agent. For biotinylated peptides, avidin was first coated on Nunc Immunosorp plates at 2 μg/mL in PBS overnight, followed by blocking as described, and the plate was then coated with biotinylated peptides at a concentration of 0.4 μg/mL and incubated for 1 hour at room temperature. Purified anti-Naᵥ 1.7 antibodies were diluted to a final concentration of 0.1 μg/mL and 1.0 μg/mL and added to the wells of the coated microtiter plates followed by incubation for 1 hour at room temperature. Bound antibodies were detected with horseradish peroxidase (HRP) conjugated anti-mouse or anti-human IgG (Jackson Immuno Research Lab, West Grove, Pa.) depending on the antibody species and developed by colorimetric response using tetramethylbenzidine (TMB) substrate (BD Biosciences). Absorbance was read at OD₄₅₀ on a plate reader for 0.1 second.
(§2) Values in Table 11 represent absolute binding ranges (at OD450) to plate-coated peptides for antibodies added at 1 μg/ml as follows: OD450<0.2: −; 0.2<OD450<1: +; 1<OD450<2: ++; 2<OD450<4: +++; NT: Not Tested.

Experiment [2] deals with T1, Native Nav1.7 (3-1) peptide, rat. Kind of experiment: SPR, captured antibody, peptide analyte. The protocol: (§3) The binding affinities of anti-Naᵥ 1.7 antibodies to Naᵥ 1.7 loop peptides were determined by Biacore. For monovalent kinetic experiments, antibodies were captured through the Fc region via a goat anti-Fc-coupled biosensor surface, and the peptides (as analyte) were injected over this captured antibody surface. For bivalent (avidity-driven) kinetic experiments, biotinylated peptides corresponding to the Naᵥ 1.7 3-1, 3-3, or paddle loop sequences were captured on a NeutrAvidin sensor surface, and anti-Naᵥ 1.7 antibodies (as analyte) were injected over this surface. Following the capture step, each analyte was individually injected at several concentrations over its respective capture surface, and changes in bound surface units (RU) were monitored. The dissociation rate is independent of the concentration of analyte used in the experiment, and the dissociation rate constant (kd) was determined from the change in antibody-bound analyte RU over time. The Biacore kinetic data were obtained using a double referencing procedure. The double referencing was conducted by first subtracting any interaction of the analyte over the reference surface (i.e., the anti-Fc coupled surface alone or the NeutrAvidin surface alone), thereby correcting for nonspecific binding to capture surface and for refractive index changes. Control buffer injections (no analyte) over the antibody- or peptide-captured surfaces were also performed to allow subtraction of RU signal changes resulting from the natural dissociation of captured binding partner from the sensor surface. The kinetic parameters were obtained by globally fitting the data for all concentrations tested for a given peptide or antibody to a 1:1 binding model using Biacore T100 Evaluation Software version 2.0.2. The KD was calculated as the dissociation rate constant divided by the association rate constant (KD=kd/kₐ). The dissociative half-life (t_{1/2}) was calculated from the dissociation rate constant (t_{1/2}=In2/kd).
A general note: SPR reads the build-up and loss of mass on a sensor chip optically.

Experiment [3] concerns the target T2, C-term Biotin Nav1.7 (3-1) peptide, human (human, not fully specified; C-terminal biotin attached via a G4S linker).
T2 construct: Synthetic peptide; also called Human Nav1.7 3-1 C-term biotin
T2 peptide: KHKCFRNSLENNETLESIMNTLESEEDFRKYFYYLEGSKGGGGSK
Nature of the experiment: SPR, captured biotin-peptide, antibody analyte. The protocol: as §3

In experiment [4] the target is full-length human Nav1.7 fused at its N-terminus to GFP, expressed in HEK293 cells (human, UniProt Q15858 1-1988). Kind of experiment: cell-based or functional assay.
Experiment [5] addresses T3, N-Term Biotin Nav1.7 (3-1) peptide, mouse (mouse, not fully specified; N-terminal biotin attached via a G4S linker).
T3 construct: Synthetic peptide; also called Mouse Nav1.7 3-1 N-term biotin
T3 peptide: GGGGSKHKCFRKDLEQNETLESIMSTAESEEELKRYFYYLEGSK
Kind of experiment: SPR, captured antibody, peptide analyte. The protocol:
as §3

The target in experiment [6] is T4, N-Term Biotin Nav1.7 (3-1) peptide, mulatta (mulatta (monkey), not fully specified; N-terminal biotin attached via a G4S linker).
T4 construct: Synthetic peptide; also called Mulatta Nav1.7 3-1 N-term biotin; monkey
T4 peptide: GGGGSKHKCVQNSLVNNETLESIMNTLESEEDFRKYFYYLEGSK
Nature of the experiment: SPR, captured antibody, peptide analyte. The protocol:
as §3

The target of experiment [7] is T5, Native Nav1.7 (3-1) peptide, human (human).
T5 construct: Synthetic peptide (Celtek), unbiotinylated; also called Human Nav1.7 3-1 native; Nav1.7 3-1 native peptide
T5 peptide: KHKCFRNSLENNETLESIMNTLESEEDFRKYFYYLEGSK
Kind of experiment: SPR, captured antibody, peptide analyte. The protocol:
as §3

Experiment [8] deals with T4, N-Term Biotin Nav1.7 (3-1) peptide, …. Kind of experiment: ELISA on coated peptide, antibody 1 ug/ml, OD450 grade. The protocol: as §1, §2
Experiment [9] addresses T6, N-Term Biotin-Nav1.7 (3-1) peptide, human (human, not fully specified; N-terminal biotin attached via a G4S linker).
T6 construct: ELISA peptide
T6 peptide: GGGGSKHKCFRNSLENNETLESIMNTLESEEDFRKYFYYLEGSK
The description is as above. The protocol: as §1, §2

B1: H4H443B (antibody, V domains shown)
VH: QVQLVESGGGLVQPGRSLRLSCAASGFTFDDYAMHWVRQVPGKGLEWVSGINWNSGSIGYADSVKGRFTISRDNAKNSLFLQMNSLRAEDTALYYCAKDIEYYDILTGYYSYYIMDVWGQGTTVTVSS
VL: DIQMTQSPSFLSASVGDRVTITCWASQGISSYLAWYQQKPGKAPKLLIYASSTLQSGVPSRFSGSGSGTEFTLTISSLQPEDFATYYCQQFNSYPPTFGQGTKVEIKR
The molecule B1 registered an OD450 in experiment [1] of 1 to 2 od. In [2], binding was put at a Kd of 176 nM and the t1/2 stood at 0.48 min.

B2: H4H438B (antibody, V domains shown)
VH: QVQLQQWGAGLLTPSETLSLTCAVYGGSFSGHYWSWIRQPPGKGLEWIGEINPRGSTNYKPSLKSRVTISVDTSKNQFSLNLRSVTAADTAMYYCAREGNLAARLWFFDLWGRGTLVTVSS
VL: DIQMTQSPSSLSASVGDRGTITCRTSQSIRSYLNWYQQKPGKAPKLLIYAASSLQSGVPSRFSGSGSGTDFTLTISSLQPEDFATYFCQQSYSSPFTFGQGTKVEIKR
notes: Fully human antibody
With B2, the Kd in [3] is 0.614 nM; in experiment [2], 77 nM; in experiment [6] it was 0.54 nM; in experiment [7], 2.73 nM. In addition, the t1/2 in experiment [3] came to 118 min; in experiment [2], 0.56 min; in experiment [6], 111 min; in [7], 30.2 min. Moreover, in [4], the “Current blocking (Average % inhibition), IonWorks Quattro, 223 nM antibody” value (“Current blocking (Average % inhibition)” for short) was determined as 43.5%. Also, the binding result in [5] was “no binding”.

B3: H4H441B (antibody, V domains shown)
VH: QVQLQQWGAGLLKPSETLSLTCAVYGGSFSGHYWTWIRQPPGKGLEWIGEINHRGNTNYNPSLKSRATISVDTSKNQFSLKLSSVTAADTAVYYCAREGSLAARLWFFDLWGRDTPVTVSS
VL: DIQMTQSPSSLSASVGDRGTVTCRASQNIRTYLNWYQQKPGKAPKLLIYAASSLQSGVPSRFSGSGSGTDFTLTISSLQPEDFATYYCQQSYGTPYTFGQGTKVEIKR
notes: Fully human antibody; the full pair is used
Turning to B3, the Kd in experiment [3] was determined as 0.703 nM; in [2], 178 nM; in experiment [6], 0.439 nM; in experiment [7] it was 6.58 nM. In addition, the t1/2 in experiment [3] amounted to 86.9 min; in [2], 0.39 min; in [6] it was 128 min; in experiment [7], 12.5 min. Besides, the binding result in experiment [5] is reported as “no binding”.

B4: H4H395B (antibody, V domains shown)
VH: EVQLVESGGGLVQPGGSLRLSCAASGFTFSSYGMSWVRQVPGKGLEWVSAISGSGGSTYYVDSVKGRFTISRDNFKNTLYLQMNSLRVEDTAVYYCAKDVGYCSTTSCRGDAFDVWGQGTMVTVSS
VL: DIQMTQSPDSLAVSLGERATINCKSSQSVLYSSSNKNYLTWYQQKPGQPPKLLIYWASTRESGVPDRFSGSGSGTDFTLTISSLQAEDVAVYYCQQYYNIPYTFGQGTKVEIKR
notes: Fully human antibody; 685/687 at r237); the full pair is used; also called H4H395N
Regarding B4, the Kd in [3] stood at 0.0252 nM; in experiment [6], 2.5 nM; in experiment [7] it was 13.2 nM. Moreover, the values for the t1/2 in experiment [3], in experiment [6] and in experiment [7] were 108 min, 34 min and 20.7 min, respectively. Moreover, in experiment [4], the “Current blocking (Average % inhibition)” value came out at 57%. Further, the binding result in experiment [2] is on record as “no binding”.

B5: H4H434B (antibody, V domains shown)
VH: QVQLVQSGGGLVQPGGSLRLSCAASGFTFSNYAMSWVRQAPGKGLEWVSAISGSGDNTYYADSVRGRFTISRDNSKNTLYLQMNSLRAEDTAIYYCAKDPHSSRWPGFFDLWGRGTLVTVSS
VL: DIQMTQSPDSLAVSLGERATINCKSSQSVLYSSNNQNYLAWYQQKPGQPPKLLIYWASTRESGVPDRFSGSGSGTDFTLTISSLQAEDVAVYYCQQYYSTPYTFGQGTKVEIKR
notes: Fully human antibody
Regarding B5, the Kd was 0.334 nM in experiment [3]; 8.98 nM in [5]; 107 nM in experiment [2]; 3.68 nM in experiment [6]; 21.4 nM in experiment [7]. Further, the t1/2 in experiment [3] was determined as 114 min; in experiment [5], 3.4 min; in experiment [2] it was 0.17 min; in experiment [6], 4.7 min; in experiment [7], 2.5 min. Also, the “Current blocking (Average % inhibition)” value in experiment [4] worked out at 17.5%.

B6: H1H1068B (antibody, V domains shown)
VH: QVQLVQSGAEVKKPGASVKVSCKASGYTFTSYGVSWVRQAPGQGLEWMGWISAYNGNTNYAQKLQGRVTMTTDTSTSTAYMELTSLRSDDTAVYYCARNWGDYWGQGTLVTVSS
VL: not shown
notes: as for B3
As for B6, the Kd amounted to 200 nM in [3], 42.6 nM in experiment [6] and 236 nM in experiment [7]. Also, the t1/2 came out at 0.3 min in [3], 0.34 min in experiment [6] and 0.16 min in [7]. The “Current blocking (Average % inhibition)” value in experiment [4] worked out at 34%.

B7: H1H1025B (antibody, V domains shown)
VH: QVQLVESGGGVVQPGRSLRLSCAASGFTFSNYGMHWVRQAPGKGLEWVAAIWFDGSNKKYVDSVKGRFTISRDNSKNTLYLQMNSLRAGDTAVYYCTRDRSGSFDYWGQGTLVTVSS
VL: DIQLTQSPSSLSASVGDRVTITCRASQGIRNDLGWYQQKPGKAPKRLIYAASSLQSGVPSRFSGSGSGTEFTLTISSLQPEDFATYYCLQHNSYPCTFGQGTKVEIKR
notes: Fully human antibody; 722/724 at r244); the full pair is used
In the case of B7, the binding result in experiment [5] and in experiment [2] was “no binding” throughout.

B8: H4H385B (antibody, V domains shown)
VH: QVQLVESGGGVVQPGRSLRLSCAASGFTFSSYGMHWVRQAPGKGLEWVALISYVGSNKHYADSVKGRFTISRDNSKNTLYLQMNSLRAEDTAVYYCAKSRGYSYGLDYWGQGTLVTVSS
VL: DIQMTQSPDSLAVSLGERATINCKSSQTVLHSSNNQNNLVWYQQKPGQPPKLLIYWASTRESGVPDRFSGSGSGTDFTLTISSLQAEDVAIYYCQQYYSTPYTFGQGTKLEIKR
notes: Fully human antibody
Regarding B8, the Kd in [3] came to 0.443 nM; in experiment [6], 29.3 nM; in experiment [7] it was 188 nM. For the same molecule, the t1/2 in [3] was 73.2 min; in experiment [6] it was 3.1 min; in [7], 0.8 min. Moreover, the “Current blocking (Average % inhibition)” value in experiment [4] was determined as 31%. The binding result in [5] and in experiment [2] was “no binding” in each case.

B9: H4H391B (antibody, V domains shown)
VH: QVQLVQSGGGVVQPGRSLRLSCAASGFTFSSYGMHWVRQAPGKGLEWVAVISYEGSNKHYADSVKGRFTISRDNSKNTLYLQMNSLRAEDTAVFYCAQSRGYSYGLGYWGQGTLVTVSS
VL: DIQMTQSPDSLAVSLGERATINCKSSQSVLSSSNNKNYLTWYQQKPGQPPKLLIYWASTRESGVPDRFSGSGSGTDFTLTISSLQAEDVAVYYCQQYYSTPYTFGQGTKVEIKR
On to B9, for which the OD450 in [8] and in experiment [9] was 2 to 4 od throughout. For the same molecule, the “Current blocking (Average % inhibition)” value in [4] was 48%.

B10: H4H382B (antibody, V domains shown)
VH: EVQLVQSGGGVVQPGRSLRLSCEASGFTFSSYGMHWVRQAPGKGLEWVAVISYDGSNKHYTDSVKGRFTISRDNSKNTLYLQMNSLRAEDTAVYFCAQSRGYSYGLGYWGQGTLVTVSS
VL: DIQMTQSPDSLAVSLGERATINCKSSQSVLSSSNNENYLVWYQQKPGQPPKLLIYWASTREPGVPDRFSGGGSGTDFTLTISSLQAEDVAVYYCQQYHSIPYTFGQGTKVEIKR
Take B10: the Kd in experiment [3] is 1.04 nM; in experiment [6] it was 13.1 nM; in experiment [7], 38.9 nM. Moreover, the t1/2 in experiment [3] was found to be 92.9 min; in experiment [6], 6 min; in experiment [7], 3.3 min. In addition, the OD450 in experiment [8] and in experiment [9] was 2 to 4 od throughout.
